In patent US20140341843A1 (ELEVEN BIOTHERAPEUTICS, published 2014) one finds Kd data, which are given here for one molecule.

This experiment addresses T1, soluble recombinant human IL-1RI (corresponding to the extracellular domain of IL-1RI) (human, UniProt P14778 18-336).
T1 construct: extracellular domain; also called interleukin-1 receptor I; IL-1R1 receptor
T1 sequence (looked up): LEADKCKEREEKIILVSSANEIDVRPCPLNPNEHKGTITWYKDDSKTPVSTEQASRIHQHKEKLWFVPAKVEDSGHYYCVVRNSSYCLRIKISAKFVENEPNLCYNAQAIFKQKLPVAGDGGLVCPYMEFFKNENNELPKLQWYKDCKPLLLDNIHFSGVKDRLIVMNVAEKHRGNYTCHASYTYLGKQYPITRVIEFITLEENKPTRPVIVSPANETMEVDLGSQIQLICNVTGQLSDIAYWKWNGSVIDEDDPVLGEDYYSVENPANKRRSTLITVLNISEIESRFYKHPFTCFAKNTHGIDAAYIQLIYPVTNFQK
Put plainly: Kd to the IL-1R1 receptor as listed in Table 15; method not restated, values are the SPR values of Table 7 rounded.

B1: P02 (designed binder)
chain: APVRSLAFRIWDVNQKTFYLRNNQLVAGYLQGPNVNLEEKIDVSFVQGEESNDKIPVALGIHGGKMCLSCVKSGDETRLQLEAVDPKNYPKKKMEKRFVFNKIEINNKLSFESAACPGWFLCTAMEADQPVSLTNMPDEGVMVTKFYMQFVSS
notes: IL-1β/IL-1Ra chimera expressed in E. coli; also called P02 domain; chimeric cytokine domain P02
For orientation: Kd means the concentration at which binding is half-saturated. Regarding B1, the Kd turned out to be 0.64 nM.
